B1: Mediator of RNA polymerase II transcription subunit 15 (Homo sapiens), Q96RN5 (parent)
chain: MDVSGQETDWRSTAFRQKLVSQIEDAMRKAGVAHSKSSKDMESHVFLKAKTRDEYLSLVARLIIHFRDIHNKKSQASVSDPMNALQSLTGGPAAGAAGIGMPPRGPGQSLGGMGSLGAMGQPMSLSGQPPPGTSGMAPHSMAVVSTATPQTQLQLQQVALQQQQQQQQFQQQQQAALQQQQQQQQQQQFQAQQSAMQQQFQAVVQQQQQLQQQQQQQQHLIKLHHQNQQQIQQQQQQLQRIAQLQLQQQQQQQQQQQQQQQQALQAQPPIQQPPMQQPQPPPSQALPQQLQQMHHTQHHQPPPQPQQPPVAQNQPSQLPPQSQTQPLVSQAQALPGQMLYTQPPLKFVRAPMVVQQPPVQPQVQQQQTAVQTAQAAQMVAPGVQMITEALAQGGMHIRARFPPTTAVSAIPSSSIPLGRQPMAQVSQSSLPMLSSPSPGQQVQTPQSMPPPPQPSPQPGQPSSQPNSNVSSGPAPSPSSFLPSPSPQPSQSPVTARTPQNFSVPSPGPLNTPVNPSSVMSPAGSSQAEEQQYLDKLKQLSKYIEPLRRMINKIDKNEDRKKDLSKMKSLLDILTDPSKRCPLKTLQKCEIALEKLKNDMAVPTPPPPPVPPTKQQYLCQPLLDAVLANIRSPVFNHSLYRTFVPAMTAIHGPPITAPVVCTRKRRLEDDERQSIPSVLQGEVARLDPKFLVNLDPSHCSNNGTVHLICKLDDKDLPSVPPLELSVPADYPAQSPLWIDRQWQYDANPFLQSVHRCMTSRLLQLPDKHSVTALLNTWAQSVHQACLSAA
partner: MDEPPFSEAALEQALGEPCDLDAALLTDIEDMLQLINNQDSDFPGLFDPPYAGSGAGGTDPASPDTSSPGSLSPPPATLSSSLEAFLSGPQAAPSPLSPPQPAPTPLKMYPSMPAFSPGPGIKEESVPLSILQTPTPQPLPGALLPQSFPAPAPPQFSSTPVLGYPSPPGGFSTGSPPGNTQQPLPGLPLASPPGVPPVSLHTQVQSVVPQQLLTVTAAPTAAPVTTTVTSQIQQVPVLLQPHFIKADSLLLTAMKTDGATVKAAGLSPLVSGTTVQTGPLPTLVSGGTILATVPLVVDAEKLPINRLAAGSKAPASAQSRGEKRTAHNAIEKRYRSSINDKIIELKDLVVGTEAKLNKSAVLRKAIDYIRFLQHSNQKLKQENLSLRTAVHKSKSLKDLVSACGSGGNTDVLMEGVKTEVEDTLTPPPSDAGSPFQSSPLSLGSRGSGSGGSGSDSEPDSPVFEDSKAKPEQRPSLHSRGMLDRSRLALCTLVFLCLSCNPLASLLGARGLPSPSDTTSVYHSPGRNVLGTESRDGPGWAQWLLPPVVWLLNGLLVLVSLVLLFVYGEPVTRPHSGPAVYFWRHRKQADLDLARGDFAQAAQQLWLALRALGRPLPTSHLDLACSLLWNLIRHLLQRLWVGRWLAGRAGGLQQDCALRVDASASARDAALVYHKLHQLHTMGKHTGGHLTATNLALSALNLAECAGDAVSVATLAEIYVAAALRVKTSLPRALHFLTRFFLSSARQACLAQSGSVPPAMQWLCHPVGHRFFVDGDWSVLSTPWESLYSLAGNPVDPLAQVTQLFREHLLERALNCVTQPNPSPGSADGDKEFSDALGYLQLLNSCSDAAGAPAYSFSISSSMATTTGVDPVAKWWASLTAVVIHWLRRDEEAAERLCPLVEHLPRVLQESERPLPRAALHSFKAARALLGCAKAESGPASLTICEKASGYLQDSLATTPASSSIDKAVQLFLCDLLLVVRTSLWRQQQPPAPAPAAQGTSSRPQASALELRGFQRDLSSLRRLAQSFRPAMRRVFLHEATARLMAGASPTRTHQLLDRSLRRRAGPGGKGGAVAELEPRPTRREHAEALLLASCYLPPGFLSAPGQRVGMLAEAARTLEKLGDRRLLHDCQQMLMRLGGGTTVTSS

Variants of: B1
Settings: with SREBF1, P36956-1

| effect of a mutation on the interaction | Variant |
| --- | --- |
| disrupting interaction strength | A60D |
| disrupting interaction strength | E42A |
| disrupting interaction strength | L58D |

Source: IntAct's records for PubMed 16799563
